Experimental data reported in patent US5221606A, “Reagent and kit for enzyme assay comprising a substrate consonant with given enzyme to be assayed” (King's College London, priority 1987, dated 1993).

Substrate: CCC(=O)Oc1c(OC)cc(C=C2SC(=S)N(CC(=O)O)C2=O)cc1OC
Assay: assay of arylesterase in serum
Assay type: biochemical
Conditions: other: borate buffer pH 8, 37.0 °C
Experimental: The serum samples were diluted by a factor of 10 prior to the assay. The substrate solution and the diluted sera were then preincubated at 37° C. in a water bath. Aliquots (0.75 ml) of the substrate solution were then pipetted into small plastic tubes (2 ml capacity), and 0.05 ml samples of the sera were added to each of the substrate aliquots and shaken vigorously to ensure adequate mixing. A blank was run by substituting water (0.05 ml) for the serum. The reaction was stopped after 10 min by the addition of the stopping buffer (0.25 ml) [prepared by dissolving DABCO (22.4 g) in water (200 ml) and adjusting the pH to 10 by the addition of a little conc. hydrochloric acid. The resulting mixture was then made up to 1000 ml with acetone]. The absorption (A) was then measured at 529 nm and the enzyme activity calculated on the basis of an εmax =47,500. [formula] where t=time of incubation in hours

B1: arylesterase (Homo sapiens) (protein)
chain: MAKLIALTLLGMGLALFRNHQSSYQTRLNALREVQPVELPNCNLVKGIETGSEDLEILPNGLAFISSGLKYPGIKSFNPNSPGKILLMDLNEEDPTVLELGITGSKFDVSSFNPHGISTFTDEDNAMYLLVVNHPDAKSTVELFKFQEEEKSLLHLKTIRHKLLPNLNDIVAVGPEHFYGTNDHYFLDPYLQSWEMYLGLAWSYVVYYSPSEVRVVAEGFDFANGINISPDGKYVYIAELLAHKIHVYEKHANWTLTPLKSLDFNTLVDNISVDPETGDLWVGCHPNGMKIFFYDSENPPASEVLRIQNILTEEPKVTQVYAENGTVLQGSTVASVYKGKLLIGTVFHKALYCEL
notes: The serum samples were diluted by a factor of 10 prior to the assay; from tissue; host or cells: serum
  Km: 25 µM
